Results reported in patent US8329186B2, “Treatment of inflammation using BST2 inhibitor” (Isu Abxis Co., Ltd, priority 2004, dated 2012).
d = 2'-deoxy (DNA); r = 2'-OH (RNA)

How the values were obtained:
HUVECs and U937 cells = experiment: Heterotypic aggregation/adhesion between IFN-γ-treated HUVECs and U937 cells; assay type: cell-based, human
Procedure: HUVECs (1−5×10^4 cells/ml) were seeded onto a 12-well cell culture plate. After one day, the medium was exchanged with a low-serum medium containing 0.5% FBS, and the cells were pretreated with interferon-gamma (IFN-γ; Calbiochem) in a final concentration 10 ng/ml for 24 hrs. Then, the pretreated HUVECs were co-cultured with U937 cells (2×10^6 cells/ml, 500 μl) at 37° C. for 4 hrs. The co-culture was washed with phosphate buffer three or four times, and the remaining cells were fixed with 4% paraformaldehyde and microscopically observed.
HUVECs were transfected with an expression vector for Bst2, treated with or without IFN-γ and then transfected with Bst2 siRNA. These cells were assessed for U937 cell adhesion.
(§1) HUVECs were cultured in 12-well plates with or without transfection of Bst2 siRNA or control siRNA for 6 hr, then treated with or without IFNγ for 24 hr. In some experiments, cells were treated with crude media containing Bst2 decoy or mouse anti-human ICAM1 antibodies. After a wash with PBS (phosphate buffered saline), U937 cells were resuspended in serum free medium at 2×10^6 cells/ml. Assays were initiated by the addition of 200 ul U937 cells to HUVEC for a final volume of 1 ml. After 4 hr at 37° C., unbound U937 cells were removed by washing plates three times with PBS. Bound cells were fixed by the addition of 4% paraformaldehyde in PBS, and the bound cells were counted under microscopy in different fields. All statistical analyses were performed in Excel and statistical significance were evaluated with Student's t test. In some experiments, RNA samples were obtained from HUVECs after treatment with IFNγ and/or siRNAs, and real-time polymerase chain reaction (RT-PCR) analyses were performed.

[1] = test system: ICAM1 expression or Bst2 expression; experiment: RT-PCR of Bst2 and ICAM1 expression in IFNγ-treated HUVEC after siRNA; assay type: cell-based, human
Procedure: as §1
RT-PCR analyses were performed.

[2] = In vivo stability of PEG-conjugated Bst2 decoy in rats (ELISA of blood samples); set-up: species or system rat; settings: tail vein, 0.4 to 2 mg/kg, compared to Bst2 decoy
Procedure: The PEG-conjugated forms of Bst2 decoy, prepared in Example 11-1, were injected into the tail vein of 7 week-old male Sprague-Dawley rats in a dose of 0.4 to 2 mg/kg. A negative control group was injected with an equal dose of physiological saline. Also, an equal dose of Bst2 decoy protein was used as a positive control. Blood samples were collected before drug administration, and 2 min, 5 min, 10 min, 30 min, 1 hr, 2 hrs, 6 hrs, 12 hrs and 24 hrs after drug administration from the jugular vein using a cannula. The collected blood samples were analyzed by ELISA. A 96-well plate was coated with an anti-Bst2 decoy antibody (100 ng/ml in PBS) at 4° C. for 8 hrs or longer, and was blocked with albumin in PBS at 37° C. for 2 hrs. The plate was reacted with a proper dilution of rat serum or Bst2 decoy (standard sample) at 37° C. for 2 hrs. The plate was then reacted with a monoclonal antibody (mAb conjugated with horseradish peroxidase, Roche Inc.) recognizing the histidine tag added to the C-terminus of Bst2 decoy at 37° C. for 2 hrs. After being well washed, the plate was treated with a substance of peroxidase, and absorbance was measured at 450 nm. Quantitation of the PEG-conjugated Bst2 decoys present in blood was performed using the standard samples (FIG. 18). […]

IL-4, IL-5 and IL-13 = experiment: Ovalbumin-induced mouse model of asthma: cytokines in lung tissue (immunoblot); assay type: in vivo; settings: ovalbumin-sensitized asthmatic mice
Procedure: (§2) A mouse model of asthma was prepared by sensitizing mice (C57B6, 8 weeks) with ovalbumin. In detail, mice were initially sensitized for five continuous days by intranasal injection of ovalbumin. After three weeks, mice were intranasally sensitized again with ovalbumin for five continuous days. One week after the secondary sensitization, mice were challenged intranasally with ovalbumin three times every 24 hrs to induce asthma. Herein, a Bst2 decoy was intravenously injected into mice 30 min before sensitization with ovalbumin, and was injected into mice 30 min before the first sensitization and the last injection of ovalbumin. Three days after the last injection, serum samples, lung tissues, and the like were collected from mice.
When a Bst2 or Damp1 decoy was injected into a mouse model of asthma which was induced by sensitization and challenge with ovalbumin, expression levels of cytokines (interleukin-4 (IL-4), interleukin-5 (IL-5) and interleukin-13 (IL-13)) were measured as follows. […] The bound primary antibodies were detected with a HRP-conjugated secondary antibody (anti-rabbit HRP-conjugated IgG) using ECL reagent.
Expression of 11-4, IL-5 and IL-13 was measured in the murine asthma model as described in Example 8-3 after injection with Bst2 decoy or Bst2 decoy Fc fusion proteins.

U937 cells = experiment: Competitive inhibition of U937 cell binding to Bst2 decoy coated plates; set-up: species or system human; settings: cells pre-incubated with fusion proteins 2 hrs
Procedure: Competitive inhibition of Fc fusion proteins in the binding between BST2 decoy and cells was measured as follows. Flat-bottomed 96-well plates were coated with Bst2 decoy (50 ug/ml) with sodium bicarbonate (100 mM, pH 9.5) for 2 hrs at 37° C. The plates were washed with PBS (pH 7.4) and incubated with 1% bovine serum albumin (BSA) at 25° C. After a rinse with PBS (pH 7.4) containing 1 mM CaCl2 and 0.5 mM MgCl2, U937 cells (1×10^6/ml) were added to each Bst2-coated well. Before the addition, cells were pre-incubated with BST2 decoy-Fc fusion proteins for 2 hrs at 37° C. Bound cells were counted as described in Example 20.

mouse model of asthma = experiment: Ovalbumin-induced mouse model of asthma: infiltrating cells in bronchoalveolar lavage; assay type: in vivo; settings: ovalbumin-sensitized mice
Procedure: as §2
A mouse model of asthma was prepared as described in Example 8-1.
The effect of Bst2 decoy-Fc fusions on immune cell infiltration was assessed as described in Example 8-2. When ovalbumin-sensitized mice were treated with a Bst2 decoy, the total number of infiltrating cells was decreased and, especially, the number of neutrophils, eosinophils and lymphocytes except for macrophage was decreased in bronchoalveolar lavage (BAL) (FIG. 27).
A mouse model of asthma was prepared as described in Example 8-1. The effect of anti-Bst2/Damp1 antibodies on immune cell infiltration was assessed as described in Example 8-2. […]

Bst2 siRNA: siRNA against Bst2 mRNA target sequence SEQ ID NO:5; sense SEQ ID NO:6, antisense SEQ ID NO:7 (sense UUGUCCGCGAUUCUCACGCTT; antisense GCGUGAGAAUCGCGGACAATT; sugars from the 5' end r19 d2, backbone not given here)
U937 cell adhesion to HUVECs (HUVECs and U937 cells; HUVECs transfected with Bst2 expression vector, with or without IFN-γ): decreased U937 cell adhesion | cell adhesion between untransfected HUVEC and U937 cells (HUVECs and U937 cells; untransfected HUVEC, IFNγ stimulation): inhibitory effect | ICAM1 expression [1]: does not affect

B1: PEG-conjugated Bst2 decoy: aldehyde PEG-conjugated human Bst2 decoy sample (conjugate, UniProt Q10589 49-161, looked up)
extracellular domain: NSEACRDGLRAVMECRNVTHLLQQELTEAQKGFQDVEAQAATCNHTVMALMASLDAEKAQGQKKVEELEGEITTLNHKLQDASAEVERLRRENQVLSVRIADKKYYPSSQDSS
modifications: extracellular domain aldehyde PEG conjugate
notes: aldehyde PEG-conjugated human Bst2 decoy sample
metabolic degradation (in vivo stability) [2]: improved metabolic degradation

B2: Bst2 decoy-IgG Fc fusion proteins: recombinant chimeric fusion proteins of the extracellular domain of human Bst2 and the Fc region of human IgG (protein)
chain: NSEACRDGLRAVMECRNVTHLLQQELTEAQKGFQDVEAQAATCNHTVMALMASLDAEKAQGQKKVEELEGEITTLNHKLQDASAEVERLRRENQVLSVRIADKKYYPSSQD
modifications: left off: a dimerising Fc or GST
cytokine levels (IL-4, IL-5, IL-13) in lung tissue (IL-4, IL-5 and IL-13): decreased | inhibition of U937 cell binding to Bst2 decoy coated cell culture plates (U937 cells): concentration-dependent inhibition

B3: mouse Damp1 decoy: soluble Damp1 protein fragment having the amino acid sequence of SEQ ID NO:2 (protein, listed as Mus musculus)
chain: FAVTANSVACRDGLRAQAECRNTTHLLQRQLTRTQDSLLQAETQANSCNLTVVTLQESLEKKVSQALEQQARIKELENEVTKLNQELENLRIQKETSSTVQVNS
cell-cell interaction between human endothelial cells and human monocytic U937 cells (HUVECs and U937 cells): inhibits cell-cell interaction

B4: 2-15: anti-Bst2/Damp1 monoclonal antibody; heavy chain variable SEQ ID NO:77, kappa SEQ ID NO:88 (antibody, V domains shown)
VH: MAQSVKESEGRLVTPGTPLTLTCTVSGFSLSNSGMSWVRQAPGKGLEWIGLINSYGTTYYASWAKGRFTISKTSTTVELKITSPTTEDTATYFCARGAGSSYGLWGQGTLVTVSSAS
VL: QAAELVMTQTPSSTSTAVGDTVTIKCQASQSIGSNLAWYQQKPGQPPKILIYSASNLASGVPSRFKGSGSGTEYTLTISGVQREDAATYYCLGSDSSWDTVFGGGTELEILRTV
modifications: 2-15 heavy chain variable region amino acid sequence; 2-15 kappa chain variable region amino acid sequence
number of infiltrating cells in bronchoalveolar lavage (total, neutrophils, eosinophils, lymphocytes) (mouse model of asthma): did not block immune cell infiltration significantly
